The results in this text go back to patent US20040121942A1 (University of California, published 2004).

Experiment [1] has as its target T1, endogenous wild-type PLB of rat cardiac myocytes (rat, UniProt P61016 1-52).
T1 sequence (looked up): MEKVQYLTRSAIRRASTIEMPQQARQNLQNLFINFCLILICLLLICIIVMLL
Briefly: cell-based or functional assay.

In experiment [2] the target is T2, sense PLB (wild-type phospholamban) expressed from a recombinant adenovirus (human, UniProt P26678 1-52).
T2 construct: ID; PLB exists as pentamer and monomer; also called sPLB; wild-type PLB
T2 sequence: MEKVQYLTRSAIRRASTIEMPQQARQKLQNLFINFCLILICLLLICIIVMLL
Nature of the experiment: Western blot of Sol8 cells co-infected with sPLB and K3E/R14E; bands read as heteropentamer. For orientation: A western blot detects proteins with antibodies after separation by electrophoresis.

B1: K3E/R14E double point mutation of PLB expressed from a recombinant adenovirus (other)
chain: MEEVQYLTRSAIREASTIEMPQQARQKLQNLFINFCLILICLLLICIIVMLL
notes: ID
With B1, the “lowering of the EC50 of Ca2+ for SR Ca2+ uptake, adult rat myocytes” value in experiment [1] was 36%. For the same molecule, the binding result in experiment [2] is “binds”.
